The target of the data set is ParC55 (topoisomerase IV ParC breakage-reunion domain);ParE30 (topoisomerase IV ParE TOPRIM domain) (Streptococcus pneumoniae;Streptococcus …, UniProt P72525;Q59961 1-488;404-647, |). The data set can be described thus: X-ray crystallography (3.1 A); PD 0305970 (two intercalated), Mg2+; cleaved DNA, covalent Tyr118; Complex: 20 mM Tris-HCl pH 7.0, 200 then 75 mM NaCl, 10% glycerol, 1 mM b-mercaptoethanol, 20 mM MgCl2, 0.05% NaN3, PD 0305970, room temperature; crystals: 50 mM Na cacodylate pH 6.5, 2.5% Tacsimate pH 7.0, 62.5 mM KCl, 7.5 mM MgCl2, 4-6% isopropanol; data at 100 K. The note with it: protein: recombinant;recombinant; tags: C-terminal His tag;N-terminal His tag; chain copies: 2;2; blunt.
Sequence of ParC55 (topoisomerase IV ParC breakage-reunion domain);ParE30 (topoisomerase IV ParE TOPRIM domain) (P72525 1-488, chain 1 of 2): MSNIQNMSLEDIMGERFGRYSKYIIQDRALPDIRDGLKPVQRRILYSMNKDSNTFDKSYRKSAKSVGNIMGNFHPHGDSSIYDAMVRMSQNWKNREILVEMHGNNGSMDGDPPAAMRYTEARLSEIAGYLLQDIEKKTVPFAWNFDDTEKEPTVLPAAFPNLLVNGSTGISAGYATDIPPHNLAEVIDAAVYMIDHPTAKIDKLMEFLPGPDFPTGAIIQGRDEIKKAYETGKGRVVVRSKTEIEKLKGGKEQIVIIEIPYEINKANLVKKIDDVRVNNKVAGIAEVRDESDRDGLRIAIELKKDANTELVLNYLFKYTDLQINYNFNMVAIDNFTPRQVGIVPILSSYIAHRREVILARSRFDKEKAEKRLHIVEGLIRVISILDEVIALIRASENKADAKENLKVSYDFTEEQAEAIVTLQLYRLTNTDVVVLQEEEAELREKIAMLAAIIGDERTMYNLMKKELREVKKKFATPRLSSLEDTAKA
Sequence of ParC55 (topoisomerase IV ParC breakage-reunion domain);ParE30 (topoisomerase IV ParE TOPRIM domain) (Q59961 404-647, chain 2 of 2): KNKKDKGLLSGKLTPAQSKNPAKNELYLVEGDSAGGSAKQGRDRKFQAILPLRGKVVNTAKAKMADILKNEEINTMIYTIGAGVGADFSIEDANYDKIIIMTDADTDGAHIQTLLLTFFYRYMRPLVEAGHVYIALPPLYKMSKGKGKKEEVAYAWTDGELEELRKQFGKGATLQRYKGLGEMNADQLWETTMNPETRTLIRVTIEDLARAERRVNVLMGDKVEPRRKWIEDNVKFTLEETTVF

B1: 34-bp E-site G-segment DNA (dsDNA)
DNA 1: ACCAAGGTCATGAATGACTATGCACGTAAAACAG
DNA 2: CTGTTTTACGTGCATAGTCATTCATGACCTTGGT
modifications: none (cleaved with 4-bp stagger in the complex, or resealed, by row)
For B1, the binding result is “binds”.

For the origin of these results see publication PMC2893164, “Structural Basis of Gate-DNA Breakage and Resealing by Type II Topoisomerases”.
